Measured values taken from PMC5993284, “Peptide inhibitors of the anaphase promoting-complex that cause sensitivity to microtubule poison” (PLoS ONE, 2018).
Ends that are not written are not given here. * marks the point of attachment. Biotin = O=C1N[C@H]2[C@H](CS[C@H]2CCCCC(=O)*)N1

Experiments:
[1] = system: Cdc20; test: Avidin-bead pull-down of full-length Cdc20 made by IVT/T; format: binding, Saccharomyces cerevisiae; conditions: biotinylated form; Avidin beads; rabbit reticulocyte lysate; Western blot; n = 3
Experimental: To determine if Tyc1 could interact directly with the APC/C a pure N-terminal biotinylated form of Tyc1 was incubated with purified APC/C. […] Thus, like Mad2-binding motif peptides, unexpectedly Tyc1 protein binds to and inhibits APC/C when present in excess leading to a microtubule poison sensitivity phenotype in vivo.
Supplementary file pone.0198930.s008.tif: S8 Fig Tyc1 can pull-down recombinant Cdc20 synthesized by IVT/T. A) A Western blot displaying the detection of Cdc20 protein made by IVT/T (left), where the epitope tag is at the N-terminus of the ORF. The IVT/T reaction yields a series of protein products that display full-length and lower molecular weights, potentially the result of pre-mature translation termination. An Avidin-bead pull-down using a biotinylated-Tyc1 (Bio-Tyc1) is shown (right). […] B) An Avidin-bead pull-down using a biotinylated-Tyc1-mut1 (Bio-Tyc1-mut1) (middle) and biotinylated-Tyc1-mut2 (Bio-Tyc1-mut2) are shown (right). […] (TIF) Click here for additional data file.

[2] = biological target: Anaphase Promoting-Complex/Cyclosome (APC/C) isolated through Cdc16-TAP and kept on IgG beads (S. cerevisiae | S. cerevisiae (endogenous in yeast)) (UniProt P09798)
[3] = biological target: Anaphase Promoting-Complex/Cyclosome (APC/C) isolated through Cdc16-TAP and kept on IgG beads (S. cerevisiae | S. cerevisiae (endogenous in yeast)) (UniProt P09798); remark: listed apart in the source
[4] = biological target: Anaphase Promoting-Complex/Cyclosome (APC/C) isolated through Cdc16-TAP and kept on IgG beads (S. cerevisiae | S. cerevisiae (endogenous in yeast)) (UniProt P09798); remark: listed apart in the source
[5] = system: APC/C; test: APC/C activity promoted by mutant Cdc20 alleles (Pds1 remaining); format: biochemical, Saccharomyces cerevisiae
Experimental: (§1) The production of Cdc20 or Cdh1 was prepared by IVT/T reactions, where 16 μL of rabbit reticulocyte lysate, 20 μM L-methionine, 0.4 μg of plasmid DNA, and a volume of nuclease-free ddH2O for a total volume of 20 μL. This freshly synthesized Cdc20 or Cdh1 protein was used directly in all APC/C assays after a 1-hour synthesis reaction at room temperature. The APC/C was purified for enzyme assays from 1 mL of TAP-tagged Cdc16 yeast extract (SCSY51) where extract was mixed with 50 μL 50:50 slurry magnetic beads (Invitrogen, Norway) for 2 hours at 4 °C. After incubation, the beads were washed with 3 mL APC/C wash buffer (200 mM of HEPES, 150 mM of NaCl and 10% (v/v) of glycerol). APC/C bound to IgG magnetic beads was used directly in the enzyme assays.
(§2) APC/C assays were performed by adding the reaction contents in following order: 4.3 μL of QAH buffer, 20 μL of rabbit reticulocyte lysate containing Cdc20 or Cdh1 with or without an additional volume of recombinant checkpoint protein(s) or inhibitor peptides, 2.4 μL ubiquitin aldehyde (Boston Biochem, USA), APC/C, 16 μL pre-charged E1/E2/ATP/ubiquitin mix, and 13.3 μL of ^35S-Pds1 with QAH buffer (20 mM HEPES at pH 8.0, 100 mM NaCl, and 1 mM MgCl2). The E1/E2/ATP/ubiquitin mix were pre-charged by mixing 1 μL of E1 (Boston Biochem, USA), 1 μL of E2 (Boston Biochem, USA), 14.4 μL of ATP, 14.4 μL of […] (Boston Biochem, USA), and 17.2 μL of QAH buffer and incubated for 15 minutes at room temperature. Approximately 15 μL of samples were taken out at each time point, and the reaction was stopped by the addition of 2x protein sample buffer (125 mM Tris-HCl pH 6.8, 4% SDS, 20% glycerol, and 0.002% bromophenol blue, with 10% (final v/v) 2-mercaptoethanol added in fresh directly before use).
For APC/C activity assays dried-gels were exposed on a phosphor screen cassette to detect radio-labeled protein. The phosphor screen was scanned by a Typhoon phosphor-imager (GE Healthcare Bio-Sciences, USA), and radio-labeled protein bands in gels were quantified by employing the ImageQuant software (GE Healthcare Bio-Sciences, USA) according to the manufacturer’s protocols. Data were expressed as mean ± standard deviation, and was analyzed using Student’s t-test. Graphs were created using Kaliedograph 4.0 (Synergy Software, USA) and estimates of best-fit curves of a 4-parameter Hill equation were generated to obtain estimates for the median inhibitory concentrations (IC50) and Hill coefficients (Hc) using IgorPro 6.01 (Wavemetrics, USA).
By sequence alignment and amino acid homology alone, the budding yeast KILR-motif may be defined as 201-RILQ-204 (Fig 1A). However, the next residue, Tyrosine Y205 had previously been isolated in a genetic screen for spindle checkpoint by-pass alleles of Cdc20 [21], indicating this Y205 residue may be a target of the spindle checkpoint inhibition, and thus might also be a functional KILR-motif residue that contributes to APC/C activation. To clarify this possibility, we took the initial step to characterize several of the previously isolated spindle checkpoint by-pass mutant alleles of Cdc20 [21], and also Cdc20 mutants in the two highly conserved residues within the Mad2-binding motif, the aspartic acid at D197 of unknown function and the highly conserved Leucine L203 within the KILR-motif based on sequence alignment and homology. […]

[6] = system: APC/C; test: APC/C activity promoted by mutant Cdc20 alleles in the presence of Mad2 (Pds1 remaining); format: biochemical, Saccharomyces cerevisiae; conditions: 5.0 μM Mad2, n = 3
Experimental: as §1, §2
For inhibitor titration and time-course experiments, recombinant Bub3, Mad2, Mad3, and the Mad3-Bub3 complex were expressed and purified as previously described. Inhibitory peptides were synthesized by standard procedures and purified to 99% purity by HPLC (Kelowna International Scientific Inc., Taiwan). For inhibition of APC/C the co-factor Cdc20 or Cdh1 was made fresh by IVT/T, and pure recombinant checkpoint proteins or inhibitor peptides were added to the IVT/T mixture and incubated for an additional hour at room temperature. In titrations, a dilution series of the checkpoint protein(s) were made before incubation with the Cdc20 co-factor. […]
Our first goal was to measure the ability of the mutant alleles to promote APC/C activity in vitro. To ensure any observed change in APC/C activity reflected a change in function, and not a change in the amount of Cdc20 co-factor protein produced by IVT/T, the amounts of Cdc20 protein produced by IVT/T was measured, and no significant difference was observed (S4 Table). […]

Anaphase Promoting-Complex/Cyclosome (APC/C) isolated through Cdc16-TAP and kept on IgG beads (S. cerevisiae | S. cerevisiae (endogenous in yeast)), sequence (P09798 whole entry, looked up, one chain of several): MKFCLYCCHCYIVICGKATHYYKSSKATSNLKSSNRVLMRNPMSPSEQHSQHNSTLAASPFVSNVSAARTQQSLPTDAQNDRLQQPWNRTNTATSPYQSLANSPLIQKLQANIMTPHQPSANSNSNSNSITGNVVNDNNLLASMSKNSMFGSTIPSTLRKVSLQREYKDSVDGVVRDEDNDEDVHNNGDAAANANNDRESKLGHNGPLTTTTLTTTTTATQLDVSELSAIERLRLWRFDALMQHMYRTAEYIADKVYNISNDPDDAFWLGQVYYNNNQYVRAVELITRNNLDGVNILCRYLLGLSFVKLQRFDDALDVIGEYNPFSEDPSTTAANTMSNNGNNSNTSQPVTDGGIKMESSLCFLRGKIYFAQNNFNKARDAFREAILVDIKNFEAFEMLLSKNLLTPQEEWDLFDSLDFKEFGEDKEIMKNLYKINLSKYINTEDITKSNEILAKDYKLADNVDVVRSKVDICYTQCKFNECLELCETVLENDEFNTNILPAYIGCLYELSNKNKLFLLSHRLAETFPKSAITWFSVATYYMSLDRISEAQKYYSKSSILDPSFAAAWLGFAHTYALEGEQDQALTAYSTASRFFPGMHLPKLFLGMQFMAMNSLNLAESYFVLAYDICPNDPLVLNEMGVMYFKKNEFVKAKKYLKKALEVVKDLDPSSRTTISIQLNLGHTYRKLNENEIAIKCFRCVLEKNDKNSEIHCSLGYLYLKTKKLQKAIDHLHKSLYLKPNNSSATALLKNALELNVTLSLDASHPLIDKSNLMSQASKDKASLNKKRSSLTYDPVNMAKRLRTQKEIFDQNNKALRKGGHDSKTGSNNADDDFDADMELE

Bio-Tyc1: biotinylated-Tyc1 (Biotin-MKVLDDWFSRKFSKAVHGNNHGTISLSTLSYIRVHKLVK)
pull-down of full-length Cdc20 from IVT/T lysate (in words) [1]: Both full-length and lower molecular weight forms of Cdc20 were observed

non-biotinylated PQ65 (Cdc20 169–232) (from UniProt P26309 169-232) (peptide)
inhibition of APC/C^Cdc20 activity in vitro (35S-Pds1 substrate), serial dilution of PQ65; blocks the binding of co-factor Cdc20 to APC/C [2]: < 50 µM

non-biotinylated Tiny Yeast Comet 1 (Tyc1) (natural protein)
inhibition of APC/C^Cdc20 activity in vitro (35S-Pds1 substrate), titration of Tyc1; blocks the binding of co-factor Cdc20 to APC/C [3]: 50 µM

DMNKRILQYMPEPPKCSSLRQKSYIMKKRTHYSYQQ (not fully specified) [non-biotinylated DQ36 (Cdc20 197–232)]
inhibition of APC/C^Cdc20 activity in vitro (35S-Pds1 substrate), titration of DQ36; blocks the binding of co-factor Cdc20 to APC/C [4]: 150 µM

B1: Cdc20-127 (Y205N): spindle checkpoint by-pass mutant allele of Cdc20, Y205N (protein, UniProt P26309 1-610, looked up, variant Y205N)
APC/C activator protein CDC20: MPESSRDKGNAAISGNRSVLSIASPTKLNILSSDWSRNQGKVSKNSLKRSSSLNIRNSKRPSLQASANSIYSRPKITIGAPPLIRRDSSFFKDEFDAKKDKATFSAYSSRSYPTIGSESVVSQTSLSQPTTSREVDEQFTVAADRYIPILQGASQNKVDPETLHEALPPPNASPISHLRAQTKIVFKQNVAEACGLDMNKRILQNMPEPPKCSSLRQKSYIMKKRTHYSYQQEQKIPDLIKLRKINTNPERILDAPGFQDDFYLNLLSWSKKNVLAIALDTALYLWNATTGDVSLLTDFENTTICSVTWSDDDCHISIGKEDGNTEIWDVETMSLIRTMRSGLGVRIGSLSWLDTLIATGSRSGEIQINDVRIKQHIVSTWAEHTGEVCGLSYKSDGLQLASGGNDNTVMIWDTRTSLPQFSKKTHTAAVKALSWCPYSPNILASGGGQTDKHIHFWNSITGARVGSINTGSQVSSLHWGQSHTSTNGGMMNKEIVATGGNPENAISVYNYETKFKVAEVVHAHEARICCSQLSPDGTTLATVGGDENLKFYKIFDPRCTGRSREDGLMDGMLGLIGKEGCRTNDKENRSKNSSEIHTRRPSSTSQYLIR
ability of mutant Cdc20 to promote APC/C activity (in words) ([5]; vs wild type Cdc20, n = 3): consistently displayed a decrease in APC activity
ability of mutant Cdc20 to promote APC/C activity (in words) ([5]; vs wild type Cdc20, n = 3, listed as Cdc20-127): displayed decreased APC/C activity
ability of mutant Cdc20 to promote APC/C activity in the presence of Mad2 (in words) [6]: consistently displayed APC activity in the presence of Mad2
ability of mutant Cdc20 to promote APC/C activity in the presence of Mad2 (in words) ([6]; listed as Cdc20-127): promote APC/C activity at the same level as control reactions even in the presence of 5.0 μM Mad2
